Results on 6 molecules are retold here after doi:10.1101/2022.06.21.496751 (bioRxiv, 2022).

B1: Ab159 recombinant monoclonal antibody (IgG) (antibody, V domains shown)
VH: QVQLVESGGGLVKPGGSLRLSCAASGFTFNNAWMSWVRQAPGKGLEWVGRIKSKTDGGTTDYAAPVKGRFTFSRDDSKNTLYLQMSSLKTEDTALYYCTTADYDILTGTPASPYWGQGTLVTVSS
VL: DIQMTQSPSSLSASVGDRVTITCRASQSITNYLNWYQQKPGKAPKFLIYAASSLQGGVPSRFRGSGSGTDFTLTISSLQPEDFATYYCQQTYSTLWTFGQGTKVEIK
B2: Ab496 recombinant monoclonal antibody (IgG) (antibody, V domains shown)
VH: EVQLVQSGPEVKKPGTSVKVSCKASGFIFTNSAVQWVRQARGQRLEWIGWIVVGSGNPNYAQKFQERVTITRDRSTSTAYMELSSLTSEDTAVYYCAAFPYYYDNSGSGPWGQGTLVTVSS
VL: DIQLTQSPSSLSASVGDRVTITCQASQDIRNNLNWYQQIPGKAPKLLIYDASNLETGVPSRFSGSASGTDFTFTISSLQPEDVATYYCQQYANLPPFTFGPGTKVDIK
B3: Ab188 recombinant monoclonal antibody (IgG) (antibody, V domains shown)
VH: EVQLVESGGGLVQPGGSLRLSCAASGFTFINYKMNWVRQAPGKGLEWVSYISSGSDAIYYADSVKGRFTISRDNAKNSLYLQMNSLRDEDTALYYCARGGGYNYGECMDVWGQGTTVTVSS
VL: not shown
B4: Ab354 recombinant monoclonal antibody (IgG) (antibody, V domains shown)
VH: QVQLVQSGAEVKKPGASVTVSCKASGFLFTGYYMHWVRQAPGQGLEWMGWINPNSGASNYTRKFQGRVTMTRDTSISATYMKLSRLTSDDTAVYYCARDLAFSMVRGALDYWGQGTLVTVSS
VL: QLVLTQPPSASGSPGQSVTISCTGTSSDVGGYNYVSWYQHHPGKAPKLMIYEVSKRPSGVPDRFSGSKSGNTASLTVSGLQAEDEADYYCNSYAGNNNWVFGTGTKVTVL
B5: Ab445 recombinant monoclonal antibody (IgG) (antibody, V domains shown)
VH: EVQLVESGGGVVQPGTSPRLSCAASGFTFSNSGMHWVRQAPGKGLEWVAVIWYDGSKKYYVDSVKGRFTISRDNSKNTLYLQMNSLRAEDTAVYYCARDGTVAVRGVMNPFFDYWGQGTLVTVSS
VL: DIQLTQSPSSLSASVGDRVTITCQASQDISNYLNWYQQIPGKAPKLLIYDASNLETGVPSRFSGSGSGTDFTFTISSLQPEDIATYYCQQYDNLPYTFGQGTKLEIK
B6: Ab326 recombinant monoclonal antibody (IgG) (antibody, V domains shown)
VH: EVQLVESGGGVVQPGRSLRLSCAASGFTFSHYPMHWVRQAPGRGLEWVAVISYDGSNQHYVDSVKGRFTISRDNSKNTLYLQMNSLRAEDTAVYFCASLITMIRGVPDYWGQGTLVTVSS
VL: DIQMTQSPSSLSASVGDRVTITCRASQSISNYLNWYQQKPGKAPNLLIFAASSLQSGVPSRFSGSGSGTEFTLTISSLQPEDFAAYYCLQTYSTPRTFGQGTRLEIK

The first experiment concerns the target full-length Spike of SARS-CoV-2 (UniProtKB-P0DTC2) expressed on 293T cells (SARS-CoV-2, UniProt P0DTC2). Put plainly: flow cytometry on cells. Background: In flow cytometry, cells or beads pass a laser one at a time.
As for B1, the binding result is “binds”. Same read-out and setting: next, B2: “binds”. On the same count and under the same terms, next, B3: “binds”; B4: “binds”; B5: “binds”.

As to B6, the binding result is reported as “binds”.

The target in a further experiment is Spike of the SARS-CoV-2 Omicron (BA.1) variant expressed on 293T cells (SARS-CoV-2, Omicron BA.1, strain). Put plainly: flow cytometry on cells.
As to B3, the binding result was “binds”.
